From patent US20140227291A1

Experiments:
[1] = biological target: Abeta(1-42) globulomer (human) (UniProt P05067); test: dot blot, antigen dilution series on nitrocellulose, antibody 0.2 µg/ml, densitometry
[2] = biological target: Abeta(1-42) monomer in 0.1% NH4OH (human); test: as above
[3] = biological target: Abeta(1-42) fibril preparation (human) (UniProt P05067); test: as above
[4] = biological target: Abeta(1-42) monomer in 0.1% NaOH (human); test: as above
[5] = biological target: Abeta(1-40) monomer in 0.1% NaOH (human); test: as above
[6] = biological target: Abeta(1-40) monomer in 0.1% NH4OH (human); test: as above
[7] = biological target: human platelet factor 4 (PF-4) in HPF4-spiked human plasma (human) (UniProt P02776); test: aligned sandwich-ELISA: antibody dilution series captured by coated anti-mouse IgG (Fc), HPF4-spiked human plasma 1:10, bound PF-4 detected with rabbit anti-HPF4 and anti-rabbit-POD
[8] = biological target: platelet factor 4 (PF-4) in Cynomolgus monkey plasma (Cynomolgus (Macaca fascicularis)); test: sandwich-ELISA, antibody coated at 10 µg/ml, cynomolgus plasma dilutions 1:3.16 to 1:3160, OD450 against log dilution
[9] = biological target: human platelet factor 4 (PF-4) in HPF4-spiked human plasma (human) (UniProt P02776); test: aligned sandwich-ELISA with HPF4-spiked human plasma; reference antibody
[10] = biological target: platelet factor 4 (PF-4) in Cynomolgus monkey plasma (Cynomolgus (Macaca fascicularis)); test: sandwich-ELISA with cynomolgus plasma; reference antibody
[11] = biological target: platelet factor 4 (PF-4) in Cynomolgus monkey plasma (Cynomolgus (Macaca fascicularis)); test: aligned sandwich-ELISA: antibody dilution series captured by coated anti-mouse IgG (Fc), cynomolgus plasma 1:100, bound PF-4 detected with rabbit anti-HPF4 and anti-rabbit-POD
[12] = biological target: platelet factor 4 (PF-4) in Cynomolgus monkey plasma (Cynomolgus (Macaca fascicularis)); test: aligned sandwich-ELISA with cynomolgus plasma; reference antibody
[13] = biological target: human platelet factor 4 (PF-4) in HPF4-spiked human plasma (human) (UniProt P02776); test: sandwich-ELISA, antibody coated at 10 µg/ml, HPF4-spiked human plasma dilutions 1:3.16 to 1:3160, OD450 against log dilution
[14] = biological target: human platelet factor 4 (PF-4) in HPF4-spiked human plasma (human) (UniProt P02776); test: aligned sandwich-ELISA, antibody 10 to 10000 ng/ml captured by anti-mouse IgG (Fc), HPF4-spiked human plasma 1:10, OD450 against log concentration
[15] = biological target: human platelet factor 4 (PF-4) in HPF4-spiked human plasma (human) (UniProt P02776); test: sandwich-ELISA with HPF4-spiked human plasma; reference antibody
[16] = biological target: platelet factor 4 (PF-4) in Cynomolgus monkey plasma (Cynomolgus (Macaca fascicularis)); test: aligned sandwich-ELISA, antibody 10 to 10000 ng/ml captured by anti-mouse IgG (Fc), cynomolgus plasma 1:100, OD450 against log concentration

Sequence of human platelet factor 4 (PF-4) in HPF4-spiked human plasma (human) (P02776 32-101): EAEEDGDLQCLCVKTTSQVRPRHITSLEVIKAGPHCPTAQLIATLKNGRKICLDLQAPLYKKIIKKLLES
Sequence of platelet factor 4 (PF-4) in Cynomolgus monkey plasma (Cynomolgus (Macaca fascicularis)) (chain, as listed by the source): as the sequence (P02776 32-101) above, with I64V counted along it
Sequence of Abeta(1-42) globulomer (human) (P05067 672-713 limits assumed): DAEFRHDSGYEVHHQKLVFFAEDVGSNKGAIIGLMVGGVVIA
Sequence of Abeta(1-42) monomer in 0.1% NH4OH (human) (peptide, as listed by the source): as the sequence (P05067 672-713 limits assumed) above
Sequence of Abeta(1-42) fibril preparation (human) (P05067 672-713 limits assumed): as above
Sequence of Abeta(1-42) monomer in 0.1% NaOH (human) (peptide, as listed by the source): as the sequence (P05067 672-713 limits assumed) above
Sequence of Abeta(1-40) monomer in 0.1% NH4OH (human) (peptide, as listed by the source): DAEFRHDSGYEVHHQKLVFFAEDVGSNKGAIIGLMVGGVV

Row | dot blot ratio (recognition of Abeta(20-42) globulomer relative to this Abeta form) [1] | dot blot ratio (recognition of Abeta(20-42) globulomer relative to this Abeta form) [2] | dot blot ratio (recognition of Abeta(20-42) globulomer relative to this Abeta form) [3] | dot blot ratio (recognition of Abeta(20-42) globulomer relative to this Abeta form) [4] | dot blot ratio (recognition of Abeta(20-42) globulomer relative to this Abeta form) [5] | dot blot ratio (recognition of Abeta(20-42) globulomer relative to this Abeta form) [6] | EC50 (read off the curve) [7] [µg/mL] | Area Under Curve [8] | Ratio HPF4/aAbeta antibody (AUC of anti-HPF4 over AUC of this antibody) [9] | Ratio HPF4/aAbeta antibody (AUC of anti-HPF4 over AUC of this antibody) [10] | EC50 (read off the curve) [11] [µg/mL] | Ratio HPF4/aAbeta antibody (AUC of anti-HPF4 over AUC of this antibody) [12] | Area Under Curve [13] | Area Under Curve [14] | Ratio HPF4/aAbeta antibody (AUC of anti-HPF4 over AUC of this antibody) [15] | Area Under Curve [16] | Substance
1 | 0.09 | 10 | 29 | 10 | 20 | 3 | – | – | – | – | – | – | – | – | – | – | Anti-Abeta monoclonal antibody clone 6E10 (Covance cat. no. SIG-39320)
2 | – | – | – | – | – | – | 0.07 | 2.68 | 1 | 1 | 0.05 | 1 | 1.99 | 3.84 | 1 | 4.78 | Anti-HPF4 monoclonal antibody (Abcam Cat. No. ab49735)
3 | – | – | – | – | – | – | – | 0.005 | – | – | – | – | 0.006 | 0.033 | – | 0.015 | Monoclonal antibody clone mIgG2a (negative control)
